From patent US20250026861A1 (INVENRA, published 2025)

T1: CD3
T1 chain: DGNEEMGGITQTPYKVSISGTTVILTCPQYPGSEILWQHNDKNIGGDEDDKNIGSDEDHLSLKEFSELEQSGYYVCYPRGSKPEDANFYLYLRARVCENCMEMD

B1: non-mutagenized SP34-89 monovalent B-Body (bispecific antibody, V domains shown)
VH: EVQLVESGGGLVQPGGSLRLSCAASGFTFNTYAMNWVRQAPGKGLEWVARIRSKYNNYATYYADSVKGRFSISRDDSKNTAYLQMNSLRAEDTAVYYCVRHGNFGNSYVSWFAYWGQGTLVTV
VL: QAVVTQEPSLTVSPGGTVTLTCRSSTGAVTTSNYANWVQQKPGQAPRGLIGGTNKRAPWTPARFSGSLLGGKAALTITGAQAEDEADYYCALWYSNLWVFGGGTKLTVL
notes: VL and VH cloned into one arm of a 1×1 BC1 B-Body; also called SP34-89 VL-WT/SP34-89 VH-WT
B2: bivalent bispecific B-Body “BC1” (bispecific antibody)
chain 1: not shown
chain 2: EVQLVESGGGLVQPGGSLRLSCAASGFTFSDYDIHWVRQAPGKGLEWVGDITPYDGTTNYADSVKGRFTISADTSKNTAYLQMNSLRAEDTAVYYCARLVGEIATGFDYWGQGTLVTVSSASPREPQVYTDPPSRDELTKNQVSLTCLVKGFYPSDIAVEWESNGQPENNYKTTPPVLDSDGSFFLYSKLTVDKSRWQQGNVFSCSVMHEALHNHYTQKSLSLSGEC
chain 3: not shown
chain 4: QVQLVESGGGVVQPGRSLRLDCKASGITFSNSGMHWVRQAPGKGLEWVAVIWYDGSKRYYADSVKGRFTISRDNSKNTLFLQMNSLRAEDTAVYYCATNDDYWGQGTLVTVSSASTKGPSVFPLAPSSKSTSGGTAALGCLVKDYFPEPVTVSWNSGALTSGVHTFPAVLQSSGLYSLSSVVTVPSSSLGTQTYICNVNHKPSNTKVDKKVEPPKSC

Key:
CD3 = molecular target: T1, CD3; experiment: BLI (Octet), two-fold serial dilution (200-12.5 nM) of the construct
CTLA4 = molecular target: T2, CTLA4 (UniProt P16410 36-161, limits assumed); experiment: Octet biolayer interferometry; antigen immobilized, B-Body as analyte
T2 construct: Immobilized antigen in the Octet assays
From the text: In each instance, the antigen is immobilized and the B-Body is the analyte.

T2 sequence (P16410 36-161 limits assumed): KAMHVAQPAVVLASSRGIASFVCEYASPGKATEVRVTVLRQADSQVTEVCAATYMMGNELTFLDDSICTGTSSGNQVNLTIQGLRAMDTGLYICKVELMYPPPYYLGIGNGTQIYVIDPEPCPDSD

Binder	Kd (CD3) [nM]	koff (CD3) [s⁻¹]	kon (CD3) [M⁻¹ s⁻¹]	binding result (CTLA4)
B1	23	0.0071	300000	–
B2	–	–	–	no binding
